Measured values: patent US20180162931A1

Columns and labels:
rat α-CGRP (1-37) (rat) = test: Biacore 37 C, Fab over N-biotinylated rat α-CGRP on SA chip
[1] = biological target: human α-CGRP 1-37 (WT) (human); test: Biacore 37 C, Fab over N-biotinylated CGRP on SA chip
[2] = biological target: human α-CGRP fragment 25-37 (human); test: Biacore 25 C, Fab over N-biotinylated fragment on SA chip
[3] = biological target: human α-CGRP 1-37 (WT) (human); test: Biacore 25 C, Fab over N-biotinylated CGRP on SA chip

Chain of human α-CGRP 1-37 (WT) (human) (peptide, as listed by the source): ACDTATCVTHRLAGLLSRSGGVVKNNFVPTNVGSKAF
Chain of rat α-CGRP (1-37) (rat) (peptide, as listed by the source): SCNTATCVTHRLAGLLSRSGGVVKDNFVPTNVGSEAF

anti-CGRP monoclonal antibody 4901 (Sigma, Product No. C7113), Fab fragment
Kd (rat α-CGRP (1-37) (rat)): 0.0034 µM | Kd [1]: 0.139 µM | fold lower affinity than binding to full length human α-CGRP [2]: 6 fold | Kd [3]: 0.061 µM
